± gives the uncertainty stated by the source.
Experiment: self-splicing fitness, log relative to wild type (ln ratio); higher = more splicing; Tetrahymena group I intron in knt gene, E. coli kanamycin selection, DiMSum; sequences stand for … in CUCUCU…GGAGGGAAAAGUUAUCAGGCAUGCACCUGGUAGCUAGUCUUUAAACCAAUAGAUUGCAUCGGUUUAAAAGGCAAGACCGUCAAAUUGCGGGAAAGGGGUCAACAGCCGUUCAGUACCAAGUCUCAGGGGAAACUUUGAGAUGGCCUUGCAAAGGGUAUGGUAAUAAGCUGACGGACAUGGUCCUAACCACGCAGCCAAGUCCUAAGUCAACAGAUCUUCUGUUGAUAUGGAUGCAGUUCACAGACUAAAUGUCGGUCGGGGAAGAUGUAUUCUUCUCAUAAGAUAUAGUCGGACCUCUCCUUAAUGGGAGCUAGCGGAUGAAGUGAUGCAACACUGGAGCCGCUGGGAACUAAUUUGUAUGCGAAAGUAUAUUGAUUAGUUUUGGAGUACUCGUGGUCG
In short: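 DiMSum derived fitness as the error-weighted combination of fold changes across replicates, kanamycin versus no kanamycin, normalised to wild type. E. coli BL21(DE3) held the library, which randomised all eight P1ex-region intron nucleotides within the knt kanamycin-resistance gene on pET-22b(+). Six replicate transformations grew overnight at 37°C or 30°C on LB agar with or without 25 μg/mL kanamycin, also containing 100 μg/mL carbenicillin, 50 μM IPTG and 0.2% rhamnose, and pooled colonies were amplicon-sequenced on an Illumina HiSeq 2500.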

Row | Sequence | self-splicing fitness (ln) (30 °C) | self-splicing fitness (ln) (37 °C)
1 | GUCUAGCAAUAUUACGUGGC | -2.84 ± 0.44 | -3.01 ± 0.43
2 | GUCUAGCAAUAUUACGUGUC | -0.8 ± 0.089 | -0.0601 ± 0.086
3 | GUGAAGCAAUAUUACGAAAG | -1.41 ± 0.15 | -0.599 ± 0.15
4 | GUGAAGCAAUAUUACGAACG | -1.57 ± 0.4 | 
5 | GUGAAGCAAUAUUACGAAGC | -2.06 ± 0.08 | -1.06 ± 0.11
6 | GUGAAGCAAUAUUACGACAG | -2.07 ± 0.16 | -1.25 ± 0.17
7 | GUGAAGCAAUAUUACGACGC | 0.482 ± 0.12 | 0.847 ± 0.17
8 | GUGAAGCAAUAUUACGAGCA | 0.204 ± 0.1 | -0.115 ± 0.14
9 | GUGAAGCAAUAUUACGAGCU | -1.12 ± 0.14 | -1.19 ± 0.21
10 | GUGAAGCAAUAUUACGCCAG | -1.09 ± 0.2 | -1.1 ± 0.22
11 | GUGAAGCAAUAUUACGCCGA | -0.95 ± 0.15 | -0.474 ± 0.16
12 | GUGAAGCAAUAUUACGCCUC | -1.22 ± 0.25 | -1.09 ± 0.48
13 | GUGAAGCAAUAUUACGCGCA | -0.00454 ± 0.099 | 0.509 ± 0.13
14 | GUGAAGCAAUAUUACGCUAC | -3.39 ± 0.27 | -1.95 ± 0.31
15 | GUGAAGCAAUAUUACGCUUG | -1.44 ± 0.11 | -0.0927 ± 0.098
16 | GUGAAGCAAUAUUACGGAUU | -0.624 ± 0.1 | -0.344 ± 0.12
17 | GUGAAGCAAUAUUACGGCCC | -0.145 ± 0.18 | 
18 | GUGAAGCAAUAUUACGGCUU | -4.92 ± 0.36 | -3.3 ± 0.26
19 | GUGAAGCAAUAUUACGGGAU | -1.1 ± 0.07 | -0.971 ± 0.093
20 | GUGAAGCAAUAUUACGUAAG | -0.979 ± 0.088 | -0.0954 ± 0.13

Row | Sequence | self-splicing fitness (ln) (30 °C) | self-splicing fitness (ln) (37 °C)
21 | GUGAAGCAAUAUUACGUAAU | -1.19 ± 0.057 | -0.668 ± 0.069
22 | GUGAAGCAAUAUUACGUCGC | -2.77 ± 0.25 | -1.75 ± 0.18
23 | GUGAAGCAAUAUUACGUGAA | -2.63 ± 0.11 | -0.504 ± 0.12
24 | GUGAAGCAAUAUUACGUGCG | -0.0545 ± 0.077 | 0.038 ± 0.094
25 | GUGAAGCAAUAUUACGUUGU | -2.68 ± 0.17 | -1.63 ± 0.15
26 | GUGCAGCAAUAUUACGAAAU | -1.31 ± 0.084 | -0.452 ± 0.097
27 | GUGCAGCAAUAUUACGAGGC | -1.83 ± 0.31 | -2.43 ± 0.26
28 | GUGCAGCAAUAUUACGAUUU | -1.06 ± 0.1 | -0.209 ± 0.12
29 | GUGCAGCAAUAUUACGCAUC |  | -3.79 ± 0.37
30 | GUGCAGCAAUAUUACGCCCU | -1.57 ± 0.14 | -0.805 ± 0.16
31 | GUGCAGCAAUAUUACGCCUU | -1.26 ± 0.16 | -0.215 ± 0.14
32 | GUGCAGCAAUAUUACGCGGC | -1.7 ± 0.14 | -2.51 ± 0.23
33 | GUGCAGCAAUAUUACGCGUG | -1.52 ± 0.11 | -1.66 ± 0.16
34 | GUGCAGCAAUAUUACGGACC | -0.711 ± 0.31 | 
35 | GUGCAGCAAUAUUACGGCCU | -0.775 ± 0.11 | 0.175 ± 0.13
36 | GUGCAGCAAUAUUACGGCUA | -0.0246 ± 0.077 | 0.17 ± 0.096
37 | GUGCAGCAAUAUUACGGUGG | -1.63 ± 0.11 | -1.16 ± 0.13
38 | GUGCAGCAAUAUUACGGUUG | -2.62 ± 0.19 | -1.95 ± 0.16
39 | GUGCAGCAAUAUUACGUACG | -2.19 ± 0.086 | -1.18 ± 0.08

From the supplement of paper PMC7877785
